One block for each binder: values may come before it.
B1: PBP4 (native) (enzyme, E. coli, UniProt P24228 21-477, looked up)
chain: ANVDEYITQLPAGANLALMVQKVGASAPAIDYHSQQMALPASTQKVITALAALIQLGPDFRFTTTLETKGNVENGVLKGDLVARFGADPTLKRQDIRNMVATLKKSGVNQIDGNVLIDTSIFASHDKAPGWPWNDMTQCFSAPPAAAIVDRNCFSVSLYSAPKPGDMAFIRVASYYPVTMFSQVRTLPRGSAEAQYCELDVVPGDLNRFTLTGCLPQRSEPLPLAFAVQDGASYAGAILKDELKQAGITWSGTLLRQTQVNEPGTVVASKQSAPLHDLLKIMLKKSDNMIADTVFRMIGHARFNVPGTWRAGSDAVRQILRQQAGVDIGNTIIADGSGLSRHNLIAPATMMQVLQYIAQHDNELNFISMLPLAGYDGSLQYRAGLHQAGVDGKVSAKTGSLQGVYNLAGFITTASGQRMAFVQYLSGYAVEPADQRNRRIPLVRFESRLYKDIYQNN
B6: His-PBP7 (enzyme, E. coli, UniProt P0AFI5 26-310, looked up)
chain: KTAAATTASQPEIASGSAMIVDLNTNKVIYSNHPDLVRPIASISKLMTAMVVLDARLPLDEKLKVDISQTPEMKGVYSRVRLNSEISRKDMLLLALMSSENRAAASLAHHYPGGYKAFIKAMNAKAKSLGMNNTRFVEPTGLSVHNVSTARDLTKLLIASKQYPLIGQLSTTREDMATFSNPTYTLPFRNTNHLVYRDNWNIQLTKTGFTNAAGHCLVMRTVINNKPVALVVMDAFGKYTHFADASRLRTWIETGKVMPVPAAALSYKKQKAAQMAAAGQTAQND

What was measured:
PBP1A = target: T1, PBP1A (E. coli, UniProt P02918 1-850, NT647 RED-NHS dye on amines (fl-PBP1A)); assay: MST
T1 sequence (looked up): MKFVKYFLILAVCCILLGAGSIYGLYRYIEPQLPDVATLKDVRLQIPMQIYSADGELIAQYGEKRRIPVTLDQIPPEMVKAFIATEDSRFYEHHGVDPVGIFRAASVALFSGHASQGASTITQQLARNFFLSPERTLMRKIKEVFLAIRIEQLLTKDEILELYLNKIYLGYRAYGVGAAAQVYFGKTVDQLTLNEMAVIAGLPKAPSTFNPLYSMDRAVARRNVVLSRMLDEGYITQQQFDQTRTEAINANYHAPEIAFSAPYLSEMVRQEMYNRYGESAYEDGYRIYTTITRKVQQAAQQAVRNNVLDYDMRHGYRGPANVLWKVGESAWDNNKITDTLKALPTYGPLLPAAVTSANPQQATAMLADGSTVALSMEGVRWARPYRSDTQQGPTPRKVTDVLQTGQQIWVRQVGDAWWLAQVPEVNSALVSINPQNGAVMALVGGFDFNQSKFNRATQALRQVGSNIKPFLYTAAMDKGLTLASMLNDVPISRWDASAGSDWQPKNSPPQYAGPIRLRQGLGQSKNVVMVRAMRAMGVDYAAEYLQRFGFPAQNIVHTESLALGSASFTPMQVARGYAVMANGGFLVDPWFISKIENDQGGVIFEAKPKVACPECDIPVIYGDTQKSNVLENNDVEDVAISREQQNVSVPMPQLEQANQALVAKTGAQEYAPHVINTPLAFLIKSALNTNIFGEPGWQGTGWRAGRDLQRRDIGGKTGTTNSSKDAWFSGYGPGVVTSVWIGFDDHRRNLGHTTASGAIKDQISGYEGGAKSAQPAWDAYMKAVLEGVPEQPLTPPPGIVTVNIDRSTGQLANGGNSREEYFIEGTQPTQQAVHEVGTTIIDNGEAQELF

AUC = target: the molecule itself; assay: AUC
MepM = target: T2, MepM (E. coli, UniProt P0AFS9 41-440); assay: MST
T2 sequence (looked up): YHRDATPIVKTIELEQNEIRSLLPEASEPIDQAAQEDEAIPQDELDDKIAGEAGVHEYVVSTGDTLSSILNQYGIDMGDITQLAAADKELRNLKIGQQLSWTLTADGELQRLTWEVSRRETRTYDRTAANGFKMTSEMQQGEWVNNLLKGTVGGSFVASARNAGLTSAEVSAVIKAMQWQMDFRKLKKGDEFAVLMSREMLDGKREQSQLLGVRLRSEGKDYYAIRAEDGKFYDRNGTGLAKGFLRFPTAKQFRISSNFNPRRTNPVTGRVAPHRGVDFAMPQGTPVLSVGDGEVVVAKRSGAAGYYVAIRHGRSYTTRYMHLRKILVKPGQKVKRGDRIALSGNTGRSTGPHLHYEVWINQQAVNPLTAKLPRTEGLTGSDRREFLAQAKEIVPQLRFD

MST = target: the molecule itself; assay: MST
PBP4 (native) [1] = target: B1; assay: MST
His-PBP7 = target: B6; assay: pull-down
PBP4 (native) [2] = target: B1; assay: pull-down
[3] = target: preformed NlpI-PBP4 complex (E. coli, UniProt P0AFB1 19-294; P24228 21-477); assay: MST

Kd (MepM): 152 nM
Kd (PBP4 (native) [1]): 177 nM
B3: NlpI (soluble version, residues 19-294) (natural protein, E. coli, UniProt P0AFB1 19-294, looked up)
chain: CSNTSWRKSEVLAVPLQPTLQQEVILARMEQILASRALTDDERAQLLYERGVLYDSLGLRALARNDFSQALAIRPDMPEVFNYLGIYLTQAGNFDAAYEAFDSVLELDPTYNYAHLNRGIALYYGGRDKLAQDDLLAFYQDDPNDPFRSLWLYLAEQKLDEKQAKEVLKQHFEKSDKEQWGWNIVEFYLGNISEQTLMERLKADATDNTSLAEHLSETNFYLGKYYLSLGDLDSATALFKLAVANNVHNFVEHRYALLELSLLGQDQDDLAESDQQ
modifications: NT647 RED-NHS dye on amines where used as the labelled partner (fl-NlpI)
stoichiometry N (AUC): 2
Kd (MST): 126 nM

binding result (His-PBP7): binds
B4: tagless NlpI (natural protein)
chain: CSNTSWRKSEVLAVPLQPTLQQEVILARMEQILASRALTDDERAQLLYERGVLYDSLGLRALARNDFSQALAIRPDMPEVFNYLGIYLTQAGNFDAAYEAFDSVLELDPTYNYAHLNRGIALYYGGRDKLAQDDLLAFYQDDPNDPFRSLWLYLAEQKLDEKQAKEVLKQHFEKSDKEQWGWNIVEFYLGNISEQTLMERLKADATDNTSLAEHLSETNFYLGKYYLSLGDLDSATALFKLAVANNVHNFVEHRYALLELSLLGQDQDDLAESDQQ

Kd (PBP1A): 101 nM
binding result (PBP4 (native) [1]): binds
B5: PBP7 (enzyme, E. coli, UniProt P0AFI5 26-310, looked up)
chain: KTAAATTASQPEIASGSAMIVDLNTNKVIYSNHPDLVRPIASISKLMTAMVVLDARLPLDEKLKVDISQTPEMKGVYSRVRLNSEISRKDMLLLALMSSENRAAASLAHHYPGGYKAFIKAMNAKAKSLGMNNTRFVEPTGLSVHNVSTARDLTKLLIASKQYPLIGQLSTTREDMATFSNPTYTLPFRNTNHLVYRDNWNIQLTKTGFTNAAGHCLVMRTVINNKPVALVVMDAFGKYTHFADASRLRTWIETGKVMPVPAAALSYKKQKAAQMAAAGQTAQND
modifications: NT647 RED-NHS dye on amines where used as the labelled partner (fl-PBP7)

binding result [3]: binds
B7: LpoA (natural protein, E. coli, UniProt P45464 27-678, looked up)
chain: CGTHTPDQSTAYMQGTAQADSAFYLQQMQQSSDDTRINWQLLAIRALVKEGKTGQAVELFNQLPQELNDAQRREKTLLAVEIKLAQKDFAGAQNLLAKITPADLEQNQQARYWQAKIDASQGRPSIDLLRALIAQEPLLGAKEKQQNIDATWQALSSMTQEQANTLVINADENILQGWLDLQRVWFDNRNDPDMMKAGIADWQKRYPNNPGAKMLPTQLVNVKAFKPASTNKIALLLPLNGQAAVFGRTIQQGFEAAKNIGTQPVAAQVAAAPAADVAEQPQPQTVDGVASPAQASVSDLTGEQPAAQPVPVSAPATSTAAVSAPANPSAELKIYDTSSQPLSQILSQVQQDGASIVVGPLLKNNVEELLKSNTPLNVLALNQPENIENRVNICYFALSPEDEARDAARHIRDQGKQAPLVLIPRSSLGDRVANAFAQEWQKLGGGTVLQQKFGSTSELRAGVNGGSGIALTGSPITLRATTDSGMTTNNPTLQTTPTDDQFTNNGGRVDAVYIVATPGEIAFIKPMIAMRNGSQSGATLYASSRSAQGTAGPDFRLEMEGLQYSEIPMLAGGNLPLMQQALSAVNNDYSLARMYAMGVDAWSLANHFSQMRQVQGFEINGNTGSLTANPDCVINRNLSWLQYQQGQVVPVS
modifications: NT647 RED-Maleimide dye on cysteines where used as the labelled partner (fl-LpoA)

More lines, now with the values behind:

Binder: B1
Kd (PBP1A): 106 nM

B2: MepS(C68A) (enzyme, E. coli, UniProt P0AFV4 27-188, looked up)
chain: CSANNTAKNMHPETRAVGSETSSLQASQDEFENLVRNVDVKSRIMDQYADWKGVRYRLGGSTKKGIDASGFVQRTFREQFGLELPRSTYEQQEMGKSVSRSNLRTGDLVLFRAGSTGRHVGIYIGNNQFVHASTSSGVIISSMNEPYWKKRYNEARRVLSRS
Kd (PBP1A): 91 nM

Binder: B6
binding result (PBP4 (native) [2]): binds

From doi:10.1101/609503 (bioRxiv, 2019)
